Data from the DeepSol protein solubility set.

Experiment: soluble on expression in E. coli; label from the status in PepcDB or PDB records

Sequence	soluble on expression in E. coli
MNDALLRALSTVNDPELHRDLVSLGMIERAELSGDVAQVKVNLTTPACPLKGQIELDVRSALLQVPGVRDVQIEFGAMVRAATQPALPGVKHVVLVGSGKGGVGKSSVAVNLAASLARDGARVGLLDADVYGPSVAHMLGQGQARVTANEDRKMRPIEAHGVRFISMANLSPAGQALVWRGPMLHSAIQQFLKDSAWGELDYLIVDLPPGTGDVQLSLTQTVQVTGAVIVTTPQDVALIDAARAIDMFRKASVPVLGVVENMSYFVAPDTGLTYDIFGRGGSRKLGEQYPLLGEIPLDVEVRKDADAGAPAILAHPESVAAQALRAVARTLAGQISVRTLSELPEQLPVLLEHHHHHH	soluble
MAATRAYHHGDLRRSVLSAALEVIRSDGVAAISLRDLARRAEVSHAAPAHHFKDKAGLLTAIATEGFELLAAALTAVPAGTTHRLREMGVRYVEFALDHPAHFDVMFRPQLLHVGDPELTAARERASRALASGVEDLPDMRAGLDARRAGLTAWSLAHGFATLQLGGSLPPLDDDPAEAFRALVADRLVVRLP	not soluble
MGSDKIHHHHHHMRSNNNNPLTRDEILSRYFPQYRPAVATSQGLSGGSCIIAHDTHRVVLRRHHDPDAPPAHFLRHYRALSQLPASLAPRALFYTPGWMAVEYLHGVVNSALPDADELAALLYHLHQQPRFGWRIALSPLLAQYWSCCDPARRTPFWLRRLKQLQKNGEPRPLRLAPLHMDVHGDNIVLTSAGLRLIDWEYAGDGDIALELAAVWVEDERQHRQLADAYAARARIDARQLWRQIRLWHPWVIMLKAGWFEYRWRQTGEQQFIRLADETWRQLRMKG	not soluble
GPGSMDGRNGSKRARSEPANGPNQSNVGTSGVEEPHVEEVPARDPELERQLDRLNIDDNLKESLRGLSPSTRGEVMNDIIRSETIERASSLMEQANLLSLIELRRLPELMEEGMSSQHYRADVDDDSELHEFGQALEDMQADGQSPSPQRGRPHGMLHTPGPLILEFLRAFAAGTHAAFADAAGVSEHLNILSELAAQRAMGVTEDVDNMSYEELLELEDKIGYVSRGVKPEDVQKCVKDVPTPHEGNCVVCQCEWSDNAETAPAVVELNRCKHVFHRTCIREWLLKNKKCPVCTQEVV	soluble
MTQTQPVTPTPPASFQTQHDPRTRLGATPLPGGAGTRFRLWTSTARTVAVRVNGTEHVMTSLGGGIYELELPVGPGARYLFVLDGVPTPDPYARFLPDGVHGEAEVVDFGTFDWTDADWHGIKLADCVFYEVHVGTFTPEGTYRAAAEKLPYLKELGVTAIQVMPLAAFDGQRGWGYDGAAFYAPYAPYGRPEDLMALVDAAHRLGLGVFLDVVYNHFGPSGNYLSSYAPSYFTDRFSSAWGMGLDYAEPHMRRYVTGNARMWLRDYHFDGLRLDATPYMTDDSETHILTELAQEIHELGGTHLLLAEDHRNLPDLVTVNHLDGIWTDDFHHETRVTLTGEQEGYYAGYRGGAEALAYTIRRGWRYEGQFWAVKGEEHERGHPSDALEAPNFVYCIQNHDQIGNRPLGERLHQSDGVTLHEYRGAAALLLTLPMTPLLFQGQEWAASTPFQFFSDHAGELGQAVSEGRKKEFGGFSGFSGEDVPDPQAEQTFLNSKLNWAEREGGEHARTLRLYRDLLRLRREDPVLHNRQRENLTTGHDGDVLWVRTVTGAGERVLLWNLGQDTRAVAEVKLPFTVPRRLLLHTEGREDLTLGAGEAVLVG	soluble
MKMFQKMCASTVIITTLLGIGGTVNSVHADSIEQQSKLGIDQETDKQIIVKFKADLKFPYEDGIEKQIQSQTNDKVLEDLLVEYPDVTFTRLFTSVSPEEIEDLEVKAPNNVSTSLLNYYILQTQNGEQKEELVDRLKKSCLIEDVYMKKQEKITPPEVQPSSVSLSPNNNPRFKQQGYLEAAPYGINAPFAWEVQGGKGSGITFVDMEYGWLLNHEDLVHQNIELMSGINIDQHVGHGTSVLGIVSSEDNEVGNIGIAPKAKAKVISQIRDNGQYNTADAILSAVNQLEAGDVLLLEAQASFDGYGDKYLPVEVQPDIFDAIRAGTDKGVVIIEAGANGWNDLDQFKDRNGKQILNRNSKDFKDSGAIMVGAGSSSFPHGRMWFSNYGSRIDVYGWGENVDTTTAEQSRSAVNLYTSSFSGTSSASPIIAGAATLVQSIAKENLGQPYRPSELRAILSNENTGTKSKDPYADQIGVLPDLKSILVNLGYGQRKPNGGNELQVTENEPNNERIQANKVNFHTPMKGTLHNSDRVDVFTFQMDSPENITISLLNEQNIGMTWVLHHESDLNNYVAYGENEGNVVKGTYHAKPGKYYLYVYKYENKDGSYVLNIK	not soluble
MSKATYKERAATHPSPVAAKLFNIMHEKQTNLCASLDVRTTKELLELVEALGPKICLLKTHVDILTDFSMEGTVKPLKALSAKYNFLLFENRKFADIGNTVKLQYSAGVYRIAEWADITNAHGVVGPGIVSGLKQAAEEVTKEPRGLLMLAELSCKGSLATGEYTKGTVDIAKSDKDFVIGFIAQRDMGGRDEGYDWLIMTPGVGLDDKGDALGQQYRTVDDVVSTGSDIIIVGRGLFAKGRDAKVEGERYRKAGWEAYLRRCGQQN	soluble
MTEMSFLSSEVLVGDLMSPFDQSGLGAEESLGLLDDYLEVAKHFKPHGFSSDKAKAGSSEWLAVDGLVSPSNNSKEDAFSGTDWMLEKMDLKEFDLDALLGIDDLETMPDDLLTTLDDTCDLFAPLVQETNKQPPQTVNPIGHLPESLTKPDQVAPFTFLQPLPLSPGVLSSTPDHSFSLELGSEVDITEGDRKPDYTAYVAMIPQCIKEEDTPSDNDSGICMSPESYLGSPQHSPSTRGSPNRSLPSPGVLCGSARPKPYDPPGEKMVAAKVKGEKLDKKLKKMEQNKTAATRYRQKKRAEQEALTGECKELEKKNEALKERADSLAKEIQYLKDLIEEVRKARGKKRVP	soluble
MSKQTAIRLPDETYERLKALSERTGRTSAYYIREAIEKHIEDMEDLYLAEEATRRIQRGESKIISAEEFWRDLDN	not soluble
MASQTQGIQQLLAAEKRAAEKINEARKRKLQRTKQAKQEAQAEVEKYKQQREAEFKAFEQQYLGTKEDIESKIRRDTEDQISGMKQSVAGNKQAVIVRLLQLVCDIKPELHHNLTLQKKLHGQFAA	not soluble
MGSDKIHHHHHHMETITIDEKTLYNLTQPSEVIEELTHLNGNLTLVPNILSEDALLNKSVKEIEKIALEEADKTSPKHVRGKKIRRKGYAKYRFLKGFKIMLKGREDIYKLERISVELPVLYSDKGRVKTQVEERLLREEKVFKALMTVYSVLGGKLNAKLWMLEIQASGDFKYVIVDGKYVKLKGGRGSFSAIGVTEEGKRAVLDITLSVEKDVMSYWRLLVEVWKKYSFVLVVVDGTKALDKISLAELQVRRQGCLVHLKRNATKEEREALNVIFSAESGEIKPETCPRLLSYLSTPKELWRWLKSNNLIESFNSLLERRRFGSFHSPWRILQIARTIANNYNLSVVFHQFY	not soluble
GSHMASTPDKFNDGNLNIAYAKPTTQSSVDYNGDPNRAVDGNRNGNFNSGSVTHTRADNPSWWEVDLKKMDKVGLVKIYNRTDAETQRLSNFDVILYDNNRNEVAKKHVNNLSGESVSLDFKEKGARYIKVKLLTSGVPLSLAEVEVFRES	soluble
MMDAKALWQRYQDWLYYHEGLGLYLDISRMRFDDSFVESLQSKFDKAFADMAALEKGAIANPDENRMVGHYWLRNPDLAPSPELTQEIVQTLEQIEAFADQVHTGAVHPPKESRFTDIISIGIGGSALGPQFVAEALSPDSPPLNIHFIDNTDPRGIDRVLSQINNLASTLVLVISKSGGTPEPRNGMIEVKKAYAAKNLDFSKYAVAVTGPDSNLDKVAKSEGWLARFSMYDWVGGRTSEMSAVGLVPAALQGIDIRAMLEGAKEMDDATRVADLKNNPAALLALAWYYSGKGKGGKDMVVLPYKDSLLLFSRYLQQLVMESLGKEKDLDGKIVYQGIAVYGNKGSTDQHAYVQQLREGVPNFFATLIEVLEDRQRKSPEIDPGVTSGDYLCGFLLGTRQALYENNRDSITVTIHQVNPRTVGALIALYERAVGLYASLVNINAYHQPGVEAGKKAAAVILDLQQKVMTVLQTERKALSISEIADKAGASEQIEAIYKILRHLHTNNRGVVLTGDLAKPGSLTVSLS	not soluble
GSHMKNSVSVDLPGSMKVLVSKSSNADGKYDLIATVDALELSGTSDKNNGSGVLEGVKADASKVKLTISDDLGQTTLEVFKSDGSTLVSKKVTSKDKSSTEEKFNEKGELSEKKITRADKSSTEEKFNEKGELSEKKITRADKSSTEEKFNEKGELSEKKITRADKSSTEEKFNEKGEVSEKIITRADGTRLEYTGIKSDGSGKAKEVLKGYVLEGTLTAEKTTLVVKEGTVTLSKNISKSGEVSVELNDTDSSAATKKTAAWNSGTSTLTITVNSKKTKDLVFTSSNTITVQQYDSNGTSLEGSAVEITKLDEIKNALK	soluble
QNYSIERDVRLAPGEHFQIEGYDFYFSGLRDKDGPNYDGYIADFEITHDGKYINTLHAEKRFYRTAKSMMTEAAIDRGITRDLYIAMGERLDDNRSWAVRIYYKPFVR	not soluble
MGSDKIHHHHHHMIRINMFSQADSVAGQGVGAAYLELIRLLRTHLVDDFYVTINKYGRSDLTHYHTINPTYFANSFSPARGRKIGYVHFLPDTLERSIKLPGVAKKVFYQYVIDFYKRMDQIVVVNPIFIDKLTEYGLDRNKIRYIPNFVAKSEFYEQTQAKKNATRQELGIPQDKFVVFGDGQVQARKGVDDFAKLAEANPDYQFIWAGGFSFGKITDGYDHFKQLVENPPKNLTFTGIIDREKLVDYLNMADLFLLPSFDELFPMSVLEAFSCGTPVLLRDLDLYRAIIDGYYLAGKDSAEMNEQLRFAATHPEVLARQQELSRKASQQYSEDHLAEIWRDFYQEQYQLGRELGQISYE	not soluble
SNAESAAPQVHLSILATTDIHANMMDYDYYSDKETADFGLARTAQLIQKHREQNPNTLLVDNGDLIQGNPLGEYAVKYQKDDIISGTKTHPIISVMNALKYDAGTLGNHEFNYGLDFLDGTIKGADFPIVNANVKTTSGENRYTPYVINEKTLIDENGNEQKVKVGYIGFVPPQIMTWDKKNLEGQVQVQDIVESANETIPKMKAEGADVIIALAHTGIEKQAQSSGAENAVFDLATKTKGIDAIISGHQHGLFPSAEYAGVAQFNVEKGTINGIPVVMPSSWGKYLGVIDLKLEKADGSWKVADSKGSIESIAGNVTSRNETVTNTIQQTHQNTLEYVRK	soluble
MTKVALFSGGDLTYFTRDFDYFVGIDKGSSFLLKNQLPLDLAIGDFDSVSAEEFKQIKAKAKKLVMAPAEKNDTDTELALKTIFDCFGRVEIIVFGAFGGRIDHMLSNIFLPSDPDLAPFMRCFKLRDEQNLVEFFPAGQHQIEQATDMVYISFMAANGAHLSIQDAKYELTEENYFQKKIYSSNEFKDKPICFSVASGYVVVIQTKDRTLEHHHHHH	soluble
MPTERPTTTAPVSLRERRRTAAAREILDAAEQHIGEHGPAALSLRAVARGLGMTVQALYHYFPNRDALVTALITKAYGELSDVLQAAADSVRADPATPRPVAVAEAYRGWGVARPEHFQLLYGTPLRYYAAPAEGPTTQAVRRMGAIFQRELFAGFTPAQLAAAEVPALSPSYREHLEQLPMHAQGDLPPAAASLFLSAWGHVHGLVVLEVFGHTAFLGDHQAEVFRTSVRMMLEDIHRRIPAA	not soluble
